# Reference: PMC9482650, “Quantitative fragmentomics allow affinity mapping of interactomes” (Nature Communications, 2022)
# T1: GRIP1_4, Q9Y3R0
# T1 sequence (Q9Y3R0 467-571, limits assumed, looked up): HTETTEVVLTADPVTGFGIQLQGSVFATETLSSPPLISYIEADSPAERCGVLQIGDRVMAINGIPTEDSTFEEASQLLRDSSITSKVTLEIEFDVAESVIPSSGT
# T2: TIAM2, Q8IVF5
# T2 sequence (Q8IVF5 885-986, limits assumed, looked up): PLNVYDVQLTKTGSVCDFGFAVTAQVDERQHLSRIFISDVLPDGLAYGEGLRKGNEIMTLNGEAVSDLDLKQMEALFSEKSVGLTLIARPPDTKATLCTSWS
# T3: HTRA4, P83105
# T3 sequence (P83105 378-476, limits assumed, looked up): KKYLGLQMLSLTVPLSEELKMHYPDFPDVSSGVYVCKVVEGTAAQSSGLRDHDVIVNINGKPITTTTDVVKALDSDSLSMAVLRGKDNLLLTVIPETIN
# T4: APBA1_2, Q02410
# T4 sequence (Q02410 742-832, limits assumed, looked up): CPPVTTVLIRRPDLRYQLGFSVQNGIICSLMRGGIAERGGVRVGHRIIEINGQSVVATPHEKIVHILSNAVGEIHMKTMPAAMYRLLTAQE
# T5: GRIP1_3, Q9Y3R0
# T5 sequence (Q9Y3R0 247-346, limits assumed, looked up): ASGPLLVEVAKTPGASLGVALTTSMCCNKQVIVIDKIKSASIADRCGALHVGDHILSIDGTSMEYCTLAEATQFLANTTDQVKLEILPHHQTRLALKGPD
# T6: APBA1_1, Q02410
# T6 sequence (Q02410 651-752, limits assumed, looked up): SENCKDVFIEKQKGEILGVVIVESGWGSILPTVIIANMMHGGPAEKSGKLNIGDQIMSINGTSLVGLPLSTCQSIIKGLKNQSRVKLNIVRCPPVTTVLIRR
# T7: PCLO, Q9Y6V0
# T7 sequence (Q9Y6V0 4491-4600, limits assumed, looked up): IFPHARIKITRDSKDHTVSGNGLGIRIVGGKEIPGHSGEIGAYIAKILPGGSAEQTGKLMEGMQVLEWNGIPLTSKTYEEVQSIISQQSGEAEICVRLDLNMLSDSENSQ
# T8: LIN7A, O14910
# T8 sequence (O14910 103-200, limits assumed, looked up): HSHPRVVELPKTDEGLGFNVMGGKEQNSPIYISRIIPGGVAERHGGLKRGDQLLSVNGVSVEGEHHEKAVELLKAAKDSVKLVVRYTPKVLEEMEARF
# T9: LRRC7, Q96NW7
# T9 sequence (Q96NW7 1440-1537, limits assumed, looked up): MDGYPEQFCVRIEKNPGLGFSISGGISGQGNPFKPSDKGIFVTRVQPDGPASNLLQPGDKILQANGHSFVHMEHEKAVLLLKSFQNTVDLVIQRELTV
# T10: GRIP1_2, Q9Y3R0
# T10 sequence (Q9Y3R0 145-248, limits assumed, looked up): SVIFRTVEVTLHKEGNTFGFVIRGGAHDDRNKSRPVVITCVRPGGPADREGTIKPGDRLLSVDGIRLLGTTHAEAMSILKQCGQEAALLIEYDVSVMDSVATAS
# T11: PARD3B_1, Q8TEW8
# T11 sequence (Q8TEW8 196-299, limits assumed, looked up): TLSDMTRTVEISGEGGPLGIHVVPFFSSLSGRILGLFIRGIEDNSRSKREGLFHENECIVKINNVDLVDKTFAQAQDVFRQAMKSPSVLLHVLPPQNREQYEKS
# B1: ABCA2, Q9BZC7 (peptide)
# chain: QLSFNTDTLC
# B2: TECPR2, O15040 (peptide)
# chain: EDLEDEWEVI
# Target: T1, GRIP1_4, Q9Y3R0
# Test: holdup assay
# Design: key: below the threshold = too weak to quantify, mostly under pKd 3.1 to 4
# Conditions: plain residues with an end cap or a label only (N-terminal biotin on a linker: ado-ado)
row,Binder,pKd
1,B1,below the threshold
2,B2,below the threshold

# Target: T2, TIAM2, Q8IVF5
# Test: holdup assay
# Design: key: below the threshold = too weak to quantify, mostly under pKd 3.1 to 4
# Conditions: plain residues with an end cap or a label only (N-terminal biotin on a linker: ado-ado)
row,Binder,pKd
1,B1,4.13
2,B2,3.98

# Target: Inadl_2, Q8NI35
# Test: holdup assay
# Design: key: below the threshold = too weak to quantify, mostly under pKd 3.1 to 4
# Conditions: plain residues with an end cap or a label only (N-terminal biotin on a linker: ado-ado)
# Chain of Inadl_2, Q8NI35 (Q8NI35 238-335): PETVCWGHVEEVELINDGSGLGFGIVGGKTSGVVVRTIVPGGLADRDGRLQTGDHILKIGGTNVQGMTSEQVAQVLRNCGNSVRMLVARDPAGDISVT
row,Binder,pKd
1,B1,below the threshold
2,B2,below the threshold

# Target: T3, HTRA4, P83105
# Test: holdup assay
# Design: key: below the threshold = too weak to quantify, mostly under pKd 3.1 to 4
# Conditions: plain residues with an end cap or a label only (N-terminal biotin on a linker: ado-ado)
row,Binder,pKd
1,B1,below the threshold
2,B2,below the threshold

# Target: MAGI2_2, Q86UL8
# Test: holdup assay
# Design: key: below the threshold = too weak to quantify, mostly under pKd 3.1 to 4
# Conditions: plain residues with an end cap or a label only (N-terminal biotin on a linker: ado-ado)
# Chain of MAGI2_2, Q86UL8 (Q86UL8 410-522): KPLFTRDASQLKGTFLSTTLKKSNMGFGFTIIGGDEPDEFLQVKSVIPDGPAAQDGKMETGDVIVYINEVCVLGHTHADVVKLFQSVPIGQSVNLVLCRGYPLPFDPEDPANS
row,Binder,pKd
1,B1,below the threshold
2,B2,below the threshold

# Target: GOPC, Q9HD26
# Test: holdup assay
# Design: key: below the threshold = too weak to quantify, mostly under pKd 3.1 to 4
# Conditions: plain residues with an end cap or a label only (N-terminal biotin on a linker: ado-ado)
row,Binder,pKd
1,B1,below the threshold
2,B2,below the threshold

# Target: NOS1, P29475
# Test: holdup assay
# Design: key: below the threshold = too weak to quantify, mostly under pKd 3.1 to 4
# Conditions: plain residues with an end cap or a label only (N-terminal biotin on a linker: ado-ado)
# Chain of NOS1, P29475 (P29475 9-101): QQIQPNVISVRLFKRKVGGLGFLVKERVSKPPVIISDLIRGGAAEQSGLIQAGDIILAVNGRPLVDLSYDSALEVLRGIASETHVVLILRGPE
row,Binder,pKd
1,B1,3.65
2,B2,below the threshold

# Target: T4, APBA1_2, Q02410
# Test: holdup assay
# Design: key: below the threshold = too weak to quantify, mostly under pKd 3.1 to 4
# Conditions: plain residues with an end cap or a label only (N-terminal biotin on a linker: ado-ado)
row,Binder,pKd
1,B1,below the threshold
2,B2,below the threshold

# Target: NHERF2_2, Q15599
# Test: holdup assay
# Design: key: below the threshold = too weak to quantify, mostly under pKd 3.1 to 4
# Conditions: plain residues with an end cap or a label only (N-terminal biotin on a linker: ado-ado)
# Chain of NHERF2_2, Q15599 (Q15599 142-238): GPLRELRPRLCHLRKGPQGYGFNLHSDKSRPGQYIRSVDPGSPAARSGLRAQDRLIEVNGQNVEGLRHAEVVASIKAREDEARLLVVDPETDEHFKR
row,Binder,pKd
1,B1,3.59
2,B2,below the threshold

# Target: FRMPD2_2, Q68DX3
# Test: holdup assay
# Design: key: below the threshold = too weak to quantify, mostly under pKd 3.1 to 4
# Conditions: plain residues with an end cap or a label only (N-terminal biotin on a linker: ado-ado)
# Chain of FRMPD2_2, Q68DX3 (Q68DX3 944-1038): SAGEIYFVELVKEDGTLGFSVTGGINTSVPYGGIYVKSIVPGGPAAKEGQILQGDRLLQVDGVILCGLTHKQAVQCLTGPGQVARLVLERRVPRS
row,Binder,pKd
1,B1,below the threshold
2,B2,below the threshold

# Target: PDZRN4_1, Q6ZMN7
# Test: holdup assay
# Design: key: below the threshold = too weak to quantify, mostly under pKd 3.1 to 4
# Conditions: plain residues with an end cap or a label only (N-terminal biotin on a linker: ado-ado)
# Chain of PDZRN4_1, Q6ZMN7 (Q6ZMN7 213-318): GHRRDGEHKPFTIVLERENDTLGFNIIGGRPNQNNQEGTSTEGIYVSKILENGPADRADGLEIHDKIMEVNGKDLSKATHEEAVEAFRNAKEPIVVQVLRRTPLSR
row,Binder,pKd
1,B1,below the threshold
2,B2,below the threshold

# Target: T5, GRIP1_3, Q9Y3R0
# Test: holdup assay
# Design: key: below the threshold = too weak to quantify, mostly under pKd 3.1 to 4
# Conditions: plain residues with an end cap or a label only (N-terminal biotin on a linker: ado-ado)
row,Binder,pKd
1,B1,below the threshold
2,B2,below the threshold

# Target: PARD3_3, Q8TEW0
# Test: holdup assay
# Design: key: below the threshold = too weak to quantify, mostly under pKd 3.1 to 4
# Conditions: plain residues with an end cap or a label only (N-terminal biotin on a linker: ado-ado)
# Chain of PARD3_3, Q8TEW0 (Q8TEW0 582-685): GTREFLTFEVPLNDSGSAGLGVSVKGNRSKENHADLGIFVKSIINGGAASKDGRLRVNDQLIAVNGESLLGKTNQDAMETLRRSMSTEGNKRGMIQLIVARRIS
row,Binder,pKd
1,B1,below the threshold
2,B2,5.6

# Target: DLG5_1, Q8TDM6
# Test: holdup assay
# Design: key: below the threshold = too weak to quantify, mostly under pKd 3.1 to 4
# Conditions: plain residues with an end cap or a label only (N-terminal biotin on a linker: ado-ado)
# Chain of DLG5_1, Q8TDM6 (Q8TDM6 617-713): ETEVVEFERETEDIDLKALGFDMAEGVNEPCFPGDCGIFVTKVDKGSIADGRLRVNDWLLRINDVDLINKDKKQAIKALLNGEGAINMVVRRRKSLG
row,Binder,pKd
1,B1,below the threshold
2,B2,below the threshold

# Target: ARHGEF12, Q9NZN5-2
# Test: holdup assay
# Design: key: below the threshold = too weak to quantify, mostly under pKd 3.1 to 4
# Conditions: plain residues with an end cap or a label only (N-terminal biotin on a linker: ado-ado)
# Chain of ARHGEF12, Q9NZN5-2 (Q9NZN5 other isoform, or with tags, fused parts or gaps): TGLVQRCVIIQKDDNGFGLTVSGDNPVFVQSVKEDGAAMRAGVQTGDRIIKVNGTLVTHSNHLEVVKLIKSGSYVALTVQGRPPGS
row,Binder,pKd
1,B1,below the threshold
2,B2,below the threshold

# Target: GRIP2_3, Q9C0E4
# Test: holdup assay
# Design: key: below the threshold = too weak to quantify, mostly under pKd 3.1 to 4
# Conditions: plain residues with an end cap or a label only (N-terminal biotin on a linker: ado-ado)
# Chain of GRIP2_3, Q9C0E4 (Q9C0E4 238-339): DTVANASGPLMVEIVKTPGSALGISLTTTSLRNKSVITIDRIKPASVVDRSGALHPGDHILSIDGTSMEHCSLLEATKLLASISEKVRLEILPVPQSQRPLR
row,Binder,pKd
1,B1,below the threshold
2,B2,below the threshold

# Target: T6, APBA1_1, Q02410
# Test: holdup assay
# Design: key: below the threshold = too weak to quantify, mostly under pKd 3.1 to 4
# Conditions: plain residues with an end cap or a label only (N-terminal biotin on a linker: ado-ado)
row,Binder,pKd
1,B1,below the threshold
2,B2,below the threshold

# Target: DLG2_2, Q15700
# Test: holdup assay
# Design: key: below the threshold = too weak to quantify, mostly under pKd 3.1 to 4
# Conditions: plain residues with an end cap or a label only (N-terminal biotin on a linker: ado-ado)
# Chain of DLG2_2, Q15700 (Q15700 189-283): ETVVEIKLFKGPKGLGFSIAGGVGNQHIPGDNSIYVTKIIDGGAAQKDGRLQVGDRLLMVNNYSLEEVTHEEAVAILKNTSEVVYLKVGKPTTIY
row,Binder,pKd
1,B1,below the threshold
2,B2,below the threshold

# Target: Inadl_8, Q8NI35
# Test: holdup assay
# Design: key: below the threshold = too weak to quantify, mostly under pKd 3.1 to 4
# Conditions: plain residues with an end cap or a label only (N-terminal biotin on a linker: ado-ado)
# Chain of Inadl_8, Q8NI35 (Q8NI35 1425-1530): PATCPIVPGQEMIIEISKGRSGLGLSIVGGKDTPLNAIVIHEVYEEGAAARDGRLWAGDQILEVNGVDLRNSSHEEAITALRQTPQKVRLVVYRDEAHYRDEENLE
row,Binder,pKd
1,B1,below the threshold
2,B2,below the threshold

# Target: T7, PCLO, Q9Y6V0
# Test: holdup assay
# Design: key: below the threshold = too weak to quantify, mostly under pKd 3.1 to 4
# Conditions: plain residues with an end cap or a label only (N-terminal biotin on a linker: ado-ado)
row,Binder,pKd
1,B1,below the threshold
2,B2,below the threshold

# Target: T8, LIN7A, O14910
# Test: holdup assay
# Design: key: below the threshold = too weak to quantify, mostly under pKd 3.1 to 4
# Conditions: plain residues with an end cap or a label only (N-terminal biotin on a linker: ado-ado)
row,Binder,pKd
1,B1,below the threshold
2,B2,below the threshold

# Target: T9, LRRC7, Q96NW7
# Test: holdup assay
# Design: key: below the threshold = too weak to quantify, mostly under pKd 3.1 to 4
# Conditions: plain residues with an end cap or a label only (N-terminal biotin on a linker: ado-ado)
row,Binder,pKd
1,B1,below the threshold
2,B2,below the threshold

# Target: T10, GRIP1_2, Q9Y3R0
# Test: holdup assay
# Design: key: below the threshold = too weak to quantify, mostly under pKd 3.1 to 4
# Conditions: plain residues with an end cap or a label only (N-terminal biotin on a linker: ado-ado)
row,Binder,pKd
1,B1,below the threshold
2,B2,below the threshold

# Target: T11, PARD3B_1, Q8TEW8
# Test: holdup assay
# Design: key: below the threshold = too weak to quantify, mostly under pKd 3.1 to 4
# Conditions: plain residues with an end cap or a label only (N-terminal biotin on a linker: ado-ado)
row,Binder,pKd
1,B1,3.67
2,B2,4.3

# Target: Inadl_9, Q8NI35
# Test: holdup assay
# Design: key: below the threshold = too weak to quantify, mostly under pKd 3.1 to 4
# Conditions: plain residues with an end cap or a label only (N-terminal biotin on a linker: ado-ado)
# Chain of Inadl_9, Q8NI35 (Q8NI35 1530-1615): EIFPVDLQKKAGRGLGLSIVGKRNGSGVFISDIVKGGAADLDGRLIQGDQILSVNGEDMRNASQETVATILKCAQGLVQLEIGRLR
row,Binder,pKd
1,B1,below the threshold
2,B2,below the threshold

# Target: PICK1, Q9NRD5
# Test: holdup assay
# Design: key: below the threshold = too weak to quantify, mostly under pKd 3.1 to 4
# Conditions: plain residues with an end cap or a label only (N-terminal biotin on a linker: ado-ado)
# Chain of PICK1, Q9NRD5 (Q9NRD5 17-115): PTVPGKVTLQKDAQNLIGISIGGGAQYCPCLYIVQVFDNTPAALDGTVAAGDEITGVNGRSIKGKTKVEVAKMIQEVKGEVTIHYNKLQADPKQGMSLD
row,Binder,pKd
1,B1,below the threshold
2,B2,below the threshold
